The target in assay [1] is T1, survivin, heteroclitic variant 97M peptide on HLA-A*02:01 (human).
T1 peptide: LMLGEFLKL
Put plainly: 4-hour 51Cr release, 50% lysis at E:T 10:1, LML-pulsed T2 cells; value given for a published TCR (Leisegang et al. 2010); T cell clone or line.

Assay [2] deals with T2, CSF3R (Granulocyte colony stimulating factor receptor) peptide on HLA-A*02:01 (human).
T2 peptide: HIILGLFGLL
Put plainly: cytokine release.

Assay [3] addresses T3, CRLS1 (cardiolipin synthase) peptide on HLA-A*02:01 (human).
T3 peptide: NIALGVFALA
Put plainly: cytokine release.

The target of assay [4] is T4, CD3d (CD3 delta) peptide on HLA-A*02:01 (human).
T4 peptide: LALGVFCFA
As to the kind of experiment: cytokine release.

In assay [5] the target is T5, INGR2 (Interferon gamma receptor 2) peptide on HLA-A*02:01 (human).
T5 peptide: LLLLGVFAAA
Put plainly: cytokine release.

Assay [6] deals with T6, survivin ELT, alanine substitution at position 5 (residues not given, written out from the filing's … (human)).
T6 peptide: ELTLAEFLKL
As to the kind of experiment: cytokine release.

In assay [7] the target is T7, CD3d (CD3 delta) peptide on HLA-A*02:01 (human).
T7 peptide: LLALGVFCFA
Put plainly: cytokine release.

The target in assay [8] is T8, CD81 (CD81 antigen) peptide on HLA-A*02:01 (human).
T8 peptide: QCLLGTFFTC
As to the kind of experiment: cytokine release.

The target in assay [9] is T9, EPB42 (Erythrocyte membrane protein band 4.2) peptide on HLA-A*02:01 (human).
T9 peptide: QLLLGQFTLL
As to the kind of experiment: cytokine release.

Assay [10] concerns the target T10, survivin ELT, alanine substitution at position 3 (residues not given, written out from the filing's … (human)).
T10 peptide: ELALGEFLKL
As to the kind of experiment: cytokine release.

Assay [11] deals with T11, survivin peptide on HLA-A*02:01 (human).
T11 peptide: ELTLGEFLKL
As to the kind of experiment: killing.

In assay [12] the target is T11, survivin peptide on HLA-A*02:01. As to the kind of experiment: 51Cr release, clone #24 against ELT-pulsed T2 cells, E:T 10:1, peptide titration (avidity as defined in Table 1); T cell clone or line.
The target in assay [13] is T1, survivin, heteroclitic variant 97M …. As to the kind of experiment: 4-hour 51Cr release, 50% lysis at E:T 10:1, clone #24 against LML-pulsed T2 cells, peptide titration; T cell clone or line.

B1: A66 (TCR)
alpha TRAV13-1*02 TRAJ39*01 CDR3: CAARAGNMLTF
beta TRBV30*01 TRBJ2-7*01 CDR3: CAWGTGLALYEQYF
In the case of B1, the EC50 of peptide in assay [1] amounted to 50 nM.

B2: A72-TCR (TCR)
Valpha: AQKITQTQPGMFVQEKEAVTLDCTYDTSDQSYGLFWYKQPSSGEMIFLIYQGSYDEQNATEGRYSLNFQKARKSANLVISASQLGDSAMYFCAMREGGGYNKLIFGAGTRLAVHP
beta TRBV30*02 TRBJ1-1*01 CDR3: CAGQDLNTEAFF
Regarding B2, the binding result is recorded as “no recognition” in [2]; “no recognition” in assay [3]; “recognises” in [4]; “no recognition” in assay [5]; “recognises” in [6]; “no recognition” in assay [7]. The binding result was “recognises” in [8], “no recognition” in [9], “recognises” in assay [10] and “recognises” in assay [11]. The EC50 of peptide in assay [1] was found to be 0.05 nM.

B3: s24-TCR (TCR, V domains shown)
Valpha: GESVGLHLPTLSVQEGDNSIINCAYSNSASDYFIWYKQESGKGPQFIIDIRSNMDKRQGQRVTVLLNKTVKHLSLQIAATQPGDSAVYFCAETVTDSWGKLQFGAGTQVVVTP
Vbeta: DAMVIQNPRYQVTQFGKPVTLSCSQTLNHNVMYWYQQKSSQAPKLLFHYYDKDFNNEADTPDNFQSRRPNTSFCFLDIRSPGLGDAAMYLCATSRGDSTAEPQHFGDGTRLSIL
With B3, the EC50 of peptide in assay [12] turned out to be 1000 nM; in [13], 50 nM. Also, the binding result in [2], in assay [3], in assay [4], in [5], in assay [7] and in assay [8] was “no recognition” each time. Moreover, the binding result in assay [9] was “no recognition”.
